Here are results for 38 variants from the RNAGym collection of RNA variant scans (doi:10.7554/elife.80360).

The chains are these.
B1: Hairpin Ribozyme (parent)
chain: GUCCUCUUUCACGUGCGCGUGAAAGAGAGAAGUGAACCAGAGAAACACACGUUGUGGUAUAUUACCUGGUA

Variants of B1 are the subject of this data set. In words: self-cleavage, relative activity (ratio to wild type); higher = more cleavage; co-transcriptional.
Turning to GUCCUCUUUCACGUGCGCGUGAAAGAGAGAGGGGAACCAGAGAAACACACGUUGUGGUAUAUUACCUGGUA, the self-cleavage amounted to 0.

On to GUCCUCUUUCACGUGCGCGUGAAAGAGAGAGGUGAACCAGAGAAACACACGUUGUGCUAUAUUACCUGGUA, for which the self-cleavage is 0.121.

For the variant GUCCUCUUUCACGUGCGCGUGAAAGAGAGAGGUGAACCAGAGAAACACACGUUGUGAUAUAUUACCUGGUA, the self-cleavage was determined as 0.0901. Then GUCCUCUUUCACGUGCGCGUGAAAGAGAGAGGUGAACCAGAGAAACACACGUUGUGGUAUAUUACCGGGUA, with 0.337; and GUCCUCUUUCACGUGCGCGUGAAAGAGAGACGUGAACCAGAGAAACACACGUUGCGGUAUAUUACCUGGUA, with 0.208.

As for GUCCUCUUUCACGUGCGCGUGAAAGAGAGAGGUGAACCAGAAAAACACACGUUGUGGUAUAUUACCUGGUA, the self-cleavage was determined as 0.19.

For GUCCUCUUUCACGUGCGCGUGAAAGAGAGAGGUGAACCAGAUAAACACACGUUGUGGUAUAUUACCUGGUA, the self-cleavage stood at 0.19.

Take GUCCUCUUUCACGUGCGCGUGAAAGAGAGACGUGAACCAGAGAAACACACGUUGUGGUAUAGUACCUGGUA: the self-cleavage was determined as 0.223. With GUCCUCUUUCACGUGCGCGUGAAAGAGAGACGUGAACCAGAGAAACACACGUUGUGGUAAAUUACCUGGUA the figure was 0.157. With GUCCUCUUUCACGUGCGCGUGAAAGAGAGACGUGAACCAGAGGAACACACGUUGUGGUAUAUUACCUGGUA the figure was 0.107. Then GUCCUCUUUCACGUGCGCGUGAAAGAGAGACGUGAACCAGAGCAACACACGUUGUGGUAUAUUACCUGGUA, with 0.25; and GUCCUCUUUCACGUGCGCGUGAAAGAGAGAGGUGAACCAGAGACACACACGUUGUGGUAUAUUACCUGGUA, with 0.188; and GUCCUCUUUCACGUGCGCGUGAAAGAGAGACGUGAACCAGAGAAACACACGUUGUGGUAUAUUCCCUGGUA, with 0.134. With GUCCUCUUUCACGUGCGCGUGAAAGAGAGAGGUGAACCAGAGAAACACACCUUGUGGUAUAUUACCUGGUA, the self-cleavage came to 0.495. Then GUCCUCUUUCACGUGCGCGUGAAAGAGAGAGGUGAACCGGAGAAACACACGUUGUGGUAUAUUACCUGGUA, with 0.192; and GUCCUCUUUCACGUGCGCGUGAAAGAGAGAGGUGAACCAGAGAAACGCACGUUGUGGUAUAUUACCUGGUA, with 0.117. In the case of GUCCUCUUUCACGUGCGCGUGAAAGAGAGAGGUGAACCAGAGAAACCCACGUUGUGGUAUAUUACCUGGUA, the self-cleavage is 0.2. Then GUCCUCUUUCACGUGCGCGUGAAAGAGAGAGGUGAACCAGAGAAACUCACGUUGUGGUAUAUUACCUGGUA, with 0.0555; and GUCCUCUUUCACGUGCGCGUGAAAGAGAGAGGUGAACCAGUGAAACACACGUUGUGGUAUAUUACCUGGUA, with 1.37; and GUCCUCUUUCACGUGCGCGUGAAAGAGAGAGGUGAACCAGGGAAACACACGUUGUGGUAUAUUACCUGGUA, with 0.712. With GUCCUCUUUCACGUGCGCGUGAAAGAGAGAGGUGAACCAGAGAAACACACGUUGUGGUAUAUUACCUGCUA the figure was 0.199; with GUCCUCUUUCACGUGCGCGUGAAAGAGAGACGUGAACCAGACAAACACACGUUGUGGUAUAUUACCUGGUA, 0.163. As for GUCCUCUUUCACGUGCGCGUGAAAGAGAGACGUGAACCAGAUAAACACACGUUGUGGUAUAUUACCUGGUA, the self-cleavage was 0.092.

Take GUCCUCUUUCACGUGCGCGUGAAAGAGAGACGUGAACCAGAGAAUCACACGUUGUGGUAUAUUACCUGGUA: the self-cleavage amounted to 0.0614. Turning to GUCCUCUUUCACGUGCGCGUGAAAGAGAGACGUGAACCAGAGAAGCACACGUUGUGGUAUAUUACCUGGUA, the self-cleavage is 0.0362. GUCCUCUUUCACGUGCGCGUGAAAGAGAGAGGUGAACCAGAGAAACACACGUUGGGGUAUAUUACCUGGUA: the self-cleavage was 0.0654. As to GUCCUCUUUCACGUGCGCGUGAAAGAGAGAGGUGAACCAGAGAAACACACGUUGUGGUAUAUUACCUGGUG, the self-cleavage is 0.651. With GUCCUCUUUCACGUGCGCGUGAAAGAGAGACGUGAACCAGAGACACACACGUUGUGGUAUAUUACCUGGUA the figure was 0.128.

Turning to GUCCUCUUUCACGUGCGCGUGAAAGAGAGAGGUGAACCAGAGAAACACACGUUAUGGUAUAUUACCUGGUA, the self-cleavage came to 0.378. On to GUCCUCUUUCACGUGCGCGUGAAAGAGAGAGGUGAACCAGAGAAACACACGUUUUGGUAUAUUACCUGGUA, for which the self-cleavage amounted to 0.223. With GUCCUCUUUCACGUGCGCGUGAAAGAGAGAGGUGAACCAGAGAAACACACGUUGUGGUAUAUUUCCUGGUA the figure was 0.215; with GUCCUCUUUCACGUGCGCGUGAAAGAGAGAGGUGAACCAGAGAAACACACGUUGUGGUAUACUACCUGGUA, 0.0965.

For GUCCUCUUUCACGUGCGCGUGAAAGAGAGAGGUGAACCAGAGGAACACACGUUGUGGUAUAUUACCUGGUA, the self-cleavage is 0.207. With GUCCUCUUUCACGUGCGCGUGAAAGAGAGAGGUGAACCAGAGCAACACACGUUGUGGUAUAUUACCUGGUA the figure was 0.0574; with GUCCUCUUUCACGUGCGCGUGAAAGAGAGAGGUGAAUCAGAGAAACACACGUUGUGGUAUAUUACCUGGUA, 0.349.

Consider GUCCUCUUUCACGUGCGCGUGAAAGAGAGAGGUGAACCAGAGAAACACACGUUGUGGUAUAUUACCUUGUA, for which the self-cleavage stood at 0.113.

In the case of GUCCUCUUUCACGUGCGCGUGAAAGAGAGACGUGAACCAGAGAAACACACGUUGUGGUAUAUUACCUGUUA, the self-cleavage is 0.0958. Then GUCCUCUUUCACGUGCGCGUGAAAGAGAGACGUGAACUAGAGAAACACACGUUGUGGUAUAUUACCUGGUA, with 0.131.
